Substitutions are numbered along the chain they refer to.
T1: Human CD98, endogenous on HCC38, Molt-4 and Jurkat human cancer cells (human)
T1 chain: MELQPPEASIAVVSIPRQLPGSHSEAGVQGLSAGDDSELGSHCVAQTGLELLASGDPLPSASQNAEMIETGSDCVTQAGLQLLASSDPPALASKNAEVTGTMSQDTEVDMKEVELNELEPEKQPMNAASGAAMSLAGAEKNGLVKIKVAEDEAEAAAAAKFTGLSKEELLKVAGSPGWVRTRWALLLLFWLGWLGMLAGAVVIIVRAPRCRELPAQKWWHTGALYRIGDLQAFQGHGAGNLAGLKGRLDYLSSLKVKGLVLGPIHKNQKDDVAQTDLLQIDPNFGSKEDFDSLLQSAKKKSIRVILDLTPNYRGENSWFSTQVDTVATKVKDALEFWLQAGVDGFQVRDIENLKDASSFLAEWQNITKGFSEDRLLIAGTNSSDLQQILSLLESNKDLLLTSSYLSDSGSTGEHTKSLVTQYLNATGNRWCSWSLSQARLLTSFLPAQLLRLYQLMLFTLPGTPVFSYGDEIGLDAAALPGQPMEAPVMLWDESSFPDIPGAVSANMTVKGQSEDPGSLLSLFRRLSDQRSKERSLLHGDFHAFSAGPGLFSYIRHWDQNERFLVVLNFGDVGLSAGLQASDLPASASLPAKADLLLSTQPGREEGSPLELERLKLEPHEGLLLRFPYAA

T2: human CD98, endogenously expressed on Molt-4 human acute lymphoblastic leukemia cells (human)
T2 chain: T1 chain

B1: Ab6-CZ (Ab6 conjugated to Bcl-xL inhibitor synthon CZ) (antibody, V domains shown)
VH: QVQLKESGPGLAQPSQTLSLTCTVSGFSLSTYGVIWLRQPPGKGLEWMGVIWTNGNTNYNSTLKSRLSISRDTSESQVYLQMNSLQTEDTATYYCARHYYDGAYYYGYFDYWGQGVMVTVSS
VL: DIVMTQTPSSQAVSAGEKVTMSCKSSQSLLYSENKKNYLAWYQQKPGQSPKLLIYWASTRESGVPDRFIGSGSGTDFTLTISSVQAEDLAVYYCQQYYYFPYTFGAGTKLELK
B2: Ab7-CZ (Ab7 conjugated to Bcl-xL inhibitor synthon CZ) (antibody, V domains shown)
VH: B1 VH with A12V, L37V, T53A, E75K, Q81K, A103T
VL: B1 VL with S22N, A106P
B3: Ab1-CZ (Ab1 conjugated to Bcl-xL inhibitor synthon CZ) (antibody, V domains shown)
VH: EVKLVESGGGLVQPGGSLRLSCATSGFTFTDYYMSWVRQPPGKALEWLGFIRNPANVYTTEYSASVKGRFTISRDNSQSILYLQMNTLRAEDSATYYCARASYGNSEGWFAYWGQGTLVTVSA
VL: DIVMSQSPSSLAVSVGEKVTMSCKSSQNLLYNNNQKNYLAWYQQKPGQSPKLLIYWASTRESGVPDRFTGSGSGTDFTLTISSVKAEDLAVYYCQQYYSYPRTFGGGTKLEIK
B4: Ab5-CZ (Ab5 conjugated to Bcl-xL inhibitor synthon CZ) (antibody, V domains shown)
VH: B3 VH with S35T, P54K, V57G, Q78L, G104V
VL: B3 VL with N28S, N32S, N33S, P46L, Q96H
B5: Ab4-CZ (Ab4 conjugated to Bcl-xL inhibitor synthon CZ) (antibody, V domains shown)
VH: B3 VH with A23T, P54K, N56T, V57I
VL: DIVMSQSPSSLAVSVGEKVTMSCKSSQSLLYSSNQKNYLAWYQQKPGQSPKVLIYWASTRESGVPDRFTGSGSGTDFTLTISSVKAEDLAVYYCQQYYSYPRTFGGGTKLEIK
B6: Ab8-CZ (Ab8 conjugated to Bcl-xL inhibitor synthon CZ) (antibody, V domains shown)
VH: EVQLVESGGGLVQPGRSLKLSCAASGFTFSDYAMAWVRQAPKKGLEWVASIIYDGRGTYYRDSVKGRFTISRDNAKSTLYLQMDSLRSEDTATYYCARQGDGTYYYWGYFDYWGQGVMVTVSS
VL: DIVMTQSPSSLAVSAGETVTINCKSSQSLLSSGNQKNYLAWYQQKPGQSPKLLIYWASTRQSGVPDRFIGSGSGTDFTLTINSVQAEDLAIYYCQQYYDTPYTFGAGTKLELK
B7: CD98 (CL-huAb104)-AAD (antibody, human IgG1, kappa, L234A L235A, V domains shown)
VH: EVQLVESGGGLVQPGGSLRLSCATSGFTFIDYYMSWVRQAPGKGLEWLGFIRNKAYGYTTEYSASVKGRFTISRDNSKSILYLQMNSLKTEDTAVYYCTRDRPAWFVYWGQGTLVTVSS
VL: DIVMTQTPLSLPVTPGEPASISCKSSQSLLYSSNQKNYLAWYLQKPGQSPQLLIYWASTRESGVPDRFSGSGSGTDFTLKISRVEAEDVGVYYCQQYYSYPYTFGGGTKVEIKR
modifications: synthon AAD on reduced interchain cysteines (sites not given)
B8: CD98 (CL-huAb102)-LB (antibody, human IgG1, kappa, L234A L235A, V domains shown)
VH: B7 VH with Y56N, G57R
VL: B7 VL
modifications: synthon LB on reduced interchain cysteines (sites not given)
B9: CD98 (CL-huAb110)-ZT (antibody, human IgG1, kappa, L234A L235A, V domains shown)
VH: EVQLVQSGAEVKKPGASVKVSCKASGFTFSDYTMAWVRQAPGQGLEWVATIIYDARGTYYRDAVKGRFTITRDNSTSTLYLELSSLRSEDTAVYYCARQSDDTYYYWGYFDYWGQGTMVTVSS
VL: B7 VL with S22N, Y31F, S33G, E61Q, V91I, Y100S, G106Q, V110L
modifications: synthon ZT on reduced interchain cysteines (sites not given)
B10: CD98 (CL-huAb104)-ZZ (antibody, human IgG1, kappa, L234A L235A, V domains shown)
VH: B7 VH
VL: B7 VL
modifications: synthon ZZ on reduced interchain cysteines (sites not given)
B11: CD98 (CL-huAb108)-AAD (antibody, human IgG1, kappa, L234A L235A, V domains shown)
VH: B9 VH with D54S, A55G
VL: B7 VL with S22N, Y31F, S33G, E61Q, V91I, S99D, Y100V, G106Q, V110L
modifications: synthon AAD on reduced interchain cysteines (sites not given)
B12: CD98 (CL-huAb108)-ZT (antibody, human IgG1, kappa, L234A L235A, V domains shown)
VH: B9 VH with D54S, A55G
VL: B7 VL with S22N, Y31F, S33G, E61Q, V91I, S99D, Y100V, G106Q, V110L
modifications: synthon ZT on reduced interchain cysteines (sites not given)
B13: CD98 (CL-huAb102)-ZT (antibody, human IgG1, kappa, L234A L235A, V domains shown)
VH: B7 VH with Y56N, G57R
VL: B7 VL
modifications: synthon ZT on reduced interchain cysteines (sites not given)
B14: CD98 (CL-huAb102)-ZZ (antibody, human IgG1, kappa, L234A L235A, V domains shown)
VH: B7 VH with Y56N, G57R
VL: B7 VL
modifications: synthon ZZ on reduced interchain cysteines (sites not given)
B15: CD98 (CL-huAb110)-AAD (antibody, human IgG1, kappa, L234A L235A, V domains shown)
VH: B9 VH
VL: B7 VL with S22N, Y31F, S33G, E61Q, V91I, Y100S, G106Q, V110L
modifications: synthon AAD on reduced interchain cysteines (sites not given)
B16: CD98 (CL-huAb104)-ZT (antibody, human IgG1, kappa, L234A L235A, V domains shown)
VH: B7 VH
VL: B7 VL
modifications: synthon ZT on reduced interchain cysteines (sites not given)
B17: CD98 (CL-huAb102)-WD (antibody, human IgG1, kappa, L234A L235A, V domains shown)
VH: B7 VH with Y56N, G57R
VL: B7 VL
modifications: synthon WD on reduced interchain cysteines (sites not given)
B18: CD98 (CL-huAb110)-WD (antibody, human IgG1, kappa, L234A L235A, V domains shown)
VH: B9 VH
VL: B7 VL with S22N, Y31F, S33G, E61Q, V91I, Y100S, G106Q, V110L
modifications: synthon WD on reduced interchain cysteines (sites not given)
B19: CD98 (CL-huAb104)-CZ (antibody, human IgG1, kappa, L234A L235A, V domains shown)
VH: B7 VH
VL: B7 VL
modifications: synthon CZ on reduced interchain cysteines (sites not given)
B20: CD98 (CL-huAb102)-CZ (antibody, human IgG1, kappa, L234A L235A, V domains shown)
VH: B7 VH with Y56N, G57R
VL: B7 VL
modifications: synthon CZ on reduced interchain cysteines (sites not given)
B21: CD98 (CL-huAb108-ZZ (antibody, human IgG1, kappa, L234A L235A, V domains shown)
VH: B9 VH with D54S, A55G
VL: B7 VL with S22N, Y31F, S33G, E61Q, V91I, S99D, Y100V, G106Q, V110L
modifications: synthon ZZ on reduced interchain cysteines (sites not given)
B22: CD98 (CL-huAb110)- LB (antibody, human IgG1, kappa, L234A L235A, V domains shown)
VH: B9 VH
VL: B7 VL with S22N, Y31F, S33G, E61Q, V91I, Y100S, G106Q, V110L
modifications: synthon LB on reduced interchain cysteines (sites not given)
B23: CD98 (CL-huAb108)-CZ (antibody, human IgG1, kappa, L234A L235A, V domains shown)
VH: B9 VH with D54S, A55G
VL: B7 VL with S22N, Y31F, S33G, E61Q, V91I, S99D, Y100V, G106Q, V110L
modifications: synthon CZ on reduced interchain cysteines (sites not given)
B24: CD98 (CL-huAb104)-WD (antibody, human IgG1, kappa, L234A L235A, V domains shown)
VH: B7 VH
VL: B7 VL
modifications: synthon WD on reduced interchain cysteines (sites not given)
B25: CD98 (CL-huAb104)-LB (antibody, human IgG1, kappa, L234A L235A, V domains shown)
VH: B7 VH
VL: B7 VL
modifications: synthon LB on reduced interchain cysteines (sites not given)

Target: T1, Human CD98, endogenous on HCC38, Molt-4 …
Assay: cell-based or functional assay

| Binder | ADC potency, IC50 (nM), HCC38 growth inhibition | ADC potency, IC50 (nM), Jurkat growth inhibition | ADC potency, IC50 (nM), Molt-4 growth inhibition |
| --- | --- | --- | --- |
| B1 | 0.438 nM | 0.086 nM | 0.057 nM |
| B2 | 1.15 nM | 0.134 nM | 0.079 nM |
| B3 | 0.998 nM | 0.05 nM | 0.053 nM |
| B4 | 0.728 nM | 0.137 nM | 0.022 nM |
| B5 | 0.879 nM | 0.371 nM | 0.127 nM |
| B6 | 0.963 nM | 0.121 nM | 0.079 nM |

Target: T2, human CD98, endogenously expressed on …
Assay: cell-based or functional assay

| Binder | % Cell Viability at 50 nM | Molt4 IC50 |
| --- | --- | --- |
| B7 | 2.5% | 28 pM |
| B8 | 14.8% | 53 pM |
| B9 | 3.5% | 156 pM |
| B10 | 6.5% | 61 pM |
| B11 | 1.8% | 91 pM |
| B12 | 4.5% | 144 pM |
| B13 | 3.4% | 40 pM |
| B14 | 6.3% | 72 pM |
| B15 | 1.5% | 74 pM |
| B16 | 3.3% | 42 pM |
| B17 | 14.3% | 109 pM |
| B18 | 10.7% | 226 pM |
| B19 | 0.9% | 23 pM |
| B20 | 1% | 15 pM |
| B21 | 5.8% | 199 pM |
| B22 | 1.9% | 208 pM |
| B23 | 1.1% | 68 pM |
| B24 | 16.4% | 67 pM |
| B25 | 3.5% | 62 pM |
